This test has as its target Strep-tagged recombinant plasminogen activator inhibitor 1 (PAI-1) (human) (UniProt P05121). The test is described as follows: pull-down; affinity chromatography: purified Strep-tagged PAI-1 (75 µL, 100 µg/mL) immobilised on Strep-Tactin Sepharose gravity flow columns; 2.0 mL medium with untagged vitronectin loaded and incubated 1 h; six washes with Buffer W, elution with Buffer E; Western blot with densitometry. Background: Immunoblotting shows a protein as a band on a membrane.
UniProt P05121, sequence (P05121 24-402): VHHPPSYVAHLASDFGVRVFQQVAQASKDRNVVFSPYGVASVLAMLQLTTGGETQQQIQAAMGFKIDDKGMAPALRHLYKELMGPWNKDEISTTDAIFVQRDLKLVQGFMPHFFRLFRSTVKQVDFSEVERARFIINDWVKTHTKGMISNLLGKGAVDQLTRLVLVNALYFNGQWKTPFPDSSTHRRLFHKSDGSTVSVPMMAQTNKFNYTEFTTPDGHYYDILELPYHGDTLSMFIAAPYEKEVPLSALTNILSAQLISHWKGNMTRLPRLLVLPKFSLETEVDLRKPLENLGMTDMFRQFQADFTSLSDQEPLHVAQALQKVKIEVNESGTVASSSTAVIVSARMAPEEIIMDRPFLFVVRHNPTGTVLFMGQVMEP

Turning to “untagged vitronectin isoform VTN_rs704: T (AMD risk-associated, Met400) (natural protein)”, the fold of vitronectin in the elution fraction against VTN rs704: C worked out at 2.28 fold.

For the origin of these results see publication PMC9179922.
